Patent US20100239570A1

Key:
Abeta1-42 fibrils = Abeta1-42 fibrils (UniProt P05067); assay: ELISA, fibrils coated, antibody titrated
[1] = target: synthetic monomeric Abeta1-40 peptide (UniProt P05067); assay: ELISA, peptide coated, antibody titrated
[2] = target: synthetic monomeric Abeta1-42 peptide (UniProt P05067); assay: ELISA, peptide coated, antibody titrated

B1: antibody NI-103 (antibody, V domains shown)
VH: EVQLHQSGPELVKPGASVKISCKTSGYTFTEYTMHWVKQSHGKSLEWIGGVNPYNDNTSYIRKLQGKVTLTVDRSSSTAYMELRSLTSEDSAVYFCARYGGLRPYYFPMDFWGQGTSVTVSS
VL: QVVLSQSPAILSASPGERVTLTCRASSSVNYMHWYQQKPGSSPKAWIYATSNLASGVPDRFSASGSGTSYSLTISRVEAEDAATYYCQQWRTNPPTFGAGTKLELKR
Abeta1-42 fibrils
  EC50: 70 pM
[1]
  EC50: 40 pM
[2]
  EC50: 61 pM
